Substitutions are numbered along the chain they refer to.
T1: Ala mutant of TA0096, SEQ ID NO: 32
T1 peptide: EENMDAQWMQDEMEIGY

T2: Ala mutant of TA0096, SEQ ID NO: 35
T2 peptide: EENMDDQWAQDEMEIGY

T3: Ala mutant having 3-amino acid substitution, SEQ ID NO: 45
T3 peptide: EENAAAQWMQDEMEIGY

T4: Ala mutant having 3-amino acid substitution, SEQ ID NO: 48
T4 peptide: EENMDDQWMQDEAAAGY

T5: Ala mutant of TA0096, SEQ ID NO: 36
T5 peptide: EENMDDQWMADEMEIGY

T6: Ala mutant of TA0096, SEQ ID NO: 28
T6 peptide: EANMDDQWMQDEMEIGY

T7: Ala mutant of TA0096, SEQ ID NO: 38
T7 peptide: EENMDDQWMQDAMEIGY

T8: Ala mutant having 3-amino acid substitution, SEQ ID NO: 46
T8 peptide: EENMDDAAAQDEMEIGY

T9: Ala mutant of TA0096, SEQ ID NO: 33
T9 peptide: EENMDDAWMQDEMEIGY

B1: G9 (antibody, V domains shown)
VH: AVTLDESGGGLQTPGGALSLVCKASGFTFSTYAMGWMRQAPGKGLEYVAAIRNDGSWTGYGAAVKGRATILRDNGQSTVRLQLSNLRAEDTGTYYCAKYTGSSGGSIGAWGHGTEVIVS
VL: AVTQPASVSANLGGTVEITCSGGGRYYYGWYQQKSPGSAPVTVIYANDKRPSDIPSRFSGSKSGSTGTLTITGVQAEDEAVYFCGSAETSSYVFGAGTTLTVL
notes: Chicken variable regions in a mouse chimeric antibody (IgG1); also called anti-PAD4 antibody G9
B2: G6 (antibody, V domains shown)
VH: AVTLDESGGGLQTPGGALSLVCKASGFTFSSYGMEWVRQAPGKGLEYVAAIRNDGSWTGYGAAVKGRATISRDDGQSTLRLQLNNLRAEDTATYYCAKTTGSSGGSIDAWGHGTEVIVS
VL: ASTQPSSVSANLGETVKITCSGGGNYYYGWYQQKSPGSAPVTLIYANDKRPSNIPSRFSGSKSGSTGTLTITGVQAEDEAVYFCGTADTGKYVFGAGTTLTVL
notes: Chicken variable regions in a mouse chimeric antibody (IgG1); also called anti-PAD4 antibody G6
B3: G8 (antibody, V domains shown)
VH: B1 VH
VL: ASTQPSSVSANLGGTVEITCSGGNRNYYYGWYQQKSPGSAPVTLIYANDKRPSNIPSRFSGSKSGSTGTLTITGVQAEDEAVYFCGTADTGKYVFGAGTTLTVL
notes: Chicken variable regions in a mouse chimeric antibody (IgG1); also called anti-PAD4 antibody G8
B4: H7 (antibody, V domains shown)
VH: B1 VH
VL: ASTQPSSVSANPGGTVEITCSGGSGRYYYGWYQQKSPGSAPVTVIYSSTHRPSNIPSRFSGSKSGSTATLTITGVQAEDEAVYFCGTADSSSYVFGAGTTLTVL
notes: Chicken variable regions in a mouse chimeric antibody (IgG1); also called anti-PAD4 antibody H7
B5: A11 (antibody, V domains shown)
VH: B2 VH with T28D, E35G, V37M, R67H, D74N, L79V, A92G, S103R
VL: B1 VL with V2S, A6S
notes: Chicken variable regions in a mouse chimeric antibody (IgG1); also called anti-PAD4 antibody A11
B6: E9 (antibody, V domains shown)
VH: B2 VH with A17T, A24G, E35G, V37M, A62S, D74N, L79V, T100S, I107V
VL: B1 VL with V2S, A6S
notes: Chicken variable regions in a mouse chimeric antibody (IgG1); also called anti-PAD4 antibody E9

Target: T1, Ala mutant of TA0096, SEQ ID NO: 32
Test: ELISA, alanine scan (position 345)
Method: (§1) The epitope of each of A11 etc. was identified by alanine scan. Specifically, the following procedures (i) to (iii) were carried out. (i) Each amino acid residue of the antigen sequence (SEQ ID NO: 1) was replaced by another amino acid one by one, and 17 different Ala mutants (SEQ ID Nos: 27 to 43) were synthesized. (ii) The reactivity of each of the Ala mutants toward a test antibody was evaluated (ELISA).
(§2) The “96 pAb” designated in the table refers to antiserum as obtained by immunizing a chicken with TA0096 (SEQ ID NO: 1). The 96 pAb, which is an anti-PAD4 polyclonal antibody, can substantially keep the affinity toward PAD4 even if any of single amino acids of PAD4 is replaced.

B1: no binding.
B2: no binding.
B3: no binding.
B4: no binding.

Target: T10, full-length recombinant mouse PAD4 (mouse, UniProt Q9Z183 1-666)
T10 construct: mature; Full-length recombinant
Test: ELISA, coated mouse PAD4; antibody 6.104E-05 ug/mL

T10 sequence (Q9Z183 whole entry): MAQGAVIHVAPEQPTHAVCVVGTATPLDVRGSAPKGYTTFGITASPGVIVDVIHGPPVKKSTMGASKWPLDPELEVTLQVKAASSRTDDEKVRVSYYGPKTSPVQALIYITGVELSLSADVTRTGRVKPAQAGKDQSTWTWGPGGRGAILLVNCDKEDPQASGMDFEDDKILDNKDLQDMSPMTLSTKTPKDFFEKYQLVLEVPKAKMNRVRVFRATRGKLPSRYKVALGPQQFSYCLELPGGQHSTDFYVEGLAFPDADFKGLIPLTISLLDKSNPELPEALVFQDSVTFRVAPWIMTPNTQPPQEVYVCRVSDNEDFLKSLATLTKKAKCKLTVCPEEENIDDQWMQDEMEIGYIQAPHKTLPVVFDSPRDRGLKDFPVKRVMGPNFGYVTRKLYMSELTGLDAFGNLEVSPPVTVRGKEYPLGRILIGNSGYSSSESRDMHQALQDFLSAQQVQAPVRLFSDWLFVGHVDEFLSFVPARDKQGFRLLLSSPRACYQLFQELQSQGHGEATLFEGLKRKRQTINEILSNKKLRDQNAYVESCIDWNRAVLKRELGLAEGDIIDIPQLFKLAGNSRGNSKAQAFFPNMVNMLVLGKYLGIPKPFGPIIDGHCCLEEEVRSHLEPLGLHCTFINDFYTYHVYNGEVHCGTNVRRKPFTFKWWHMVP

First: B5
Second: B6
The “OD 490/630 nm” value of the first is lower: 0.045 for the first, 0.051 for the second.

Going from B1 to B2, the “OD 490/630 nm” value falls from 0.079 to 0.044.

Going from B3 to B4, the “OD 490/630 nm” value falls from 0.122 to 0.103.

Target: T11, full-length recombinant human PAD4 (human, UniProt Q9UM07 1-663)
T11 construct: Full-length recombinant; also called peptidylarginine deiminase 4
Test: ELISA, coated human PAD4; antibody 1 ug/mL

T11 sequence (Q9UM07 whole entry): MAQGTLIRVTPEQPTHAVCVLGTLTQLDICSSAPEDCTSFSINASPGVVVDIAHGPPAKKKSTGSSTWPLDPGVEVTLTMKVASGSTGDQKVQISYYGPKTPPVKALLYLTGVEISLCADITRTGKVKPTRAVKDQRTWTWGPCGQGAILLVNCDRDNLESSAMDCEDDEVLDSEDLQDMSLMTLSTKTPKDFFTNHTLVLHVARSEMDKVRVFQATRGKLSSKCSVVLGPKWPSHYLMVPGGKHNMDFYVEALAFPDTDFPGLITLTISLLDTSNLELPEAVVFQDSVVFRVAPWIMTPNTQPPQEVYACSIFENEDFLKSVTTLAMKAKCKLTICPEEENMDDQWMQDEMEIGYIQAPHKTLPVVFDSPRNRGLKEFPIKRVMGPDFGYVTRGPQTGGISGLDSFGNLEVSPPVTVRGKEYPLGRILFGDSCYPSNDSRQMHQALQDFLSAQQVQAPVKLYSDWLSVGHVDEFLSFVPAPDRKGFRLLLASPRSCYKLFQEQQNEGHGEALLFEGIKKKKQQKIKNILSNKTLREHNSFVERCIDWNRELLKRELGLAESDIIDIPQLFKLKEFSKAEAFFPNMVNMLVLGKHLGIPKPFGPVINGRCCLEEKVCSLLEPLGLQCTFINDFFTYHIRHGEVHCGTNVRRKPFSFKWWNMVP

Compared with B5, B6 is lower in “OD 490/630 nm” value: 2.15 for the first, 2.11 for the second.

First: B1
Second: B2
The “OD 490/630 nm” value of the first is lower: 2.1 for the first, 2.11 for the second.

Going from B3 to B4, the “OD 490/630 nm” value falls from 2.12 to 2.11.

Target: T11, full-length recombinant human PAD4
Test: ELISA, coated human PAD4; antibody 0.0009766 ug/mL

Compared with B5, B6 is lower in “OD 490/630 nm” value: 0.511 for the first, 0.489 for the second.

First: B1
Second: B2
The “OD 490/630 nm” value of the first is higher: 0.534 for the first, 0.437 for the second.

Compared with B3, B4 is lower in “OD 490/630 nm” value: 0.544 for the first, 0.537 for the second.

Target: T2, Ala mutant of TA0096, SEQ ID NO: 35
Test: ELISA, alanine scan (position 348)
Method: as §1, §2

B5: no binding.
B6: no binding.
B2: no binding.
B4: no binding.

Target: T11, full-length recombinant human PAD4
Test: ELISA, coated human PAD4; antibody 0.0039063 ug/mL

Going from B5 to B6, the “OD 490/630 nm” value rises from 1.31 to 1.36.

First: B1
Second: B2
The “OD 490/630 nm” value of the first is higher: 1.36 for the first, 1.16 for the second.

First: B3
Second: B4
The “OD 490/630 nm” value of the first is lower: 1.34 for the first, 1.35 for the second.

Target: T3, Ala mutant having 3-amino acid …
Test: ELISA, coated peptide

Going from B5 to B6, the “OD 490/630 nm” value falls from 0.039 to 0.022.

Going from B1 to B2, the “OD 490/630 nm” value falls from 0.019 to 0.018.

Going from B3 to B4, the “OD 490/630 nm” value falls from 0.065 to 0.016.

Target: T4, Ala mutant having 3-amino acid …
Test: ELISA, coated peptide

First: B5
Second: B6
The “OD 490/630 nm” value of the first is higher: 1.87 for the first, 1.81 for the second.

First: B1
Second: B2
The “OD 490/630 nm” value of the first is higher: 1.89 for the first, 1.85 for the second.

First: B3
Second: B4
The “OD 490/630 nm” value of the first is higher: 1.88 for the first, 1.87 for the second.

Target: T5, Ala mutant of TA0096, SEQ ID NO: 36
Test: ELISA, coated peptide

Compared with B5, B6 is lower in “OD 490/630 nm” value: 1.91 for the first, 1.9 for the second.

First: B1
Second: B2
The “OD 490/630 nm” value of the first is higher: 1.87 for the first, 1.85 for the second.

First: B3
Second: B4
The “OD 490/630 nm” value of the first is higher: 1.92 for the first, 1.87 for the second.

Target: T6, Ala mutant of TA0096, SEQ ID NO: 28
Test: ELISA, coated peptide

B5 and B6 are the same in “OD 490/630 nm” value: 2 for the first, 2 for the second.

First: B1
Second: B2
The “OD 490/630 nm” value of the first is lower: 1.96 for the first, 1.99 for the second.

First: B3
Second: B4
The “OD 490/630 nm” value of the first is lower: 1.94 for the first, 1.95 for the second.

Target: T7, Ala mutant of TA0096, SEQ ID NO: 38
Test: ELISA, coated peptide

Going from B5 to B6, the “OD 490/630 nm” value rises from 1.89 to 1.91.

First: B1
Second: B2
The “OD 490/630 nm” value of the first is higher: 1.96 for the first, 1.92 for the second.

Compared with B3, B4 is higher in “OD 490/630 nm” value: 1.91 for the first, 1.99 for the second.

Target: T8, Ala mutant having 3-amino acid …
Test: ELISA, coated peptide

Compared with B5, B6 is lower in “OD 490/630 nm” value: 0.043 for the first, 0.027 for the second.

Going from B1 to B2, the “OD 490/630 nm” value falls from 0.131 to 0.083.

For B4, the “OD 490/630 nm” value was 0.044.

Target: T9, Ala mutant of TA0096, SEQ ID NO: 33
Test: ELISA, coated peptide

Going from B5 to B6, the “OD 490/630 nm” value falls from 2.09 to 1.93.

B1 and B2 are the same in “OD 490/630 nm” value: 1.98 for the first, 1.98 for the second.

First: B3
Second: B4
The “OD 490/630 nm” value of the first is higher: 1.98 for the first, 1.87 for the second.

Target: T1, Ala mutant of TA0096, SEQ ID NO: 32
Test: ELISA, coated peptide

Compared with B1, B2 is lower in “OD 490/630 nm” value: 0.039 for the first, 0.035 for the second.

First: B3
Second: B4
The “OD 490/630 nm” value of the first is higher: 0.083 for the first, 0.033 for the second.

Target: T11, full-length recombinant human PAD4
Test: ELISA, coated human PAD4; antibody 6.104E-05 ug/mL

Going from B5 to B6, the “OD 490/630 nm” value rises from 0.063 to 0.07.

Compared with B1, B2 is lower in “OD 490/630 nm” value: 0.082 for the first, 0.075 for the second.

First: B3
Second: B4
The “OD 490/630 nm” value of the first is lower: 0.1 for the first, 0.111 for the second.

Target: T8, Ala mutant having 3-amino acid …
Test: ELISA, 3-amino acid Ala mutants
Method: as §1
Note that, as additional experiments, 6 different Ala mutants having 3-amino acid substitution (SEQ ID NOs: 44 to 49) were likewise examined in the experiments.

B5: no binding.
B6: no binding.
B1: no binding.
B2: no binding.
B4: no binding.

Target: T11, full-length recombinant human PAD4
Test: SPR (Biacore T200), antibody captured, human PAD4 analyte
Method: Biacore (GE Healthcare, Biacore T200) was carried out to evaluate the affinity of A11 etc., toward human PAD4. A Mouse Antibody Capture kit (GE Healthcare, BR-1008-38) was used for the affinity assay. Specifically, in accordance with the standard protocol provided by the manufacture, NHS/EDC was used and an amine coupling method, in which a free carboxyl group is fixed on a surface of a CM5 chip, was used to immobilize a rabbit anti-mouse polyclonal antibody on the surface of a CM5 chip. Next, A11 etc., were each captured by the rabbit anti-mouse polyclonal antibody. L207 was likewise captured. Then, human PAD4 at each concentration was subjected to Biacore T200 measurement to create a kinetic sensorgram.

B5 and B6 are within 1.5-fold of each other in Kd: 4.37 nM for the first, 5.52 nM for the second.

Compared with B1, B2 is 2.8-fold higher in Kd: 3.16 nM for the first, 8.74 nM for the second. The first binds more tightly here.

Going from B3 to B4, the Kd rises from 2.34 nM to 7.56 nM (3.2-fold).

B5 and B6 are within 1.5-fold of each other in koff: 0.000566 s⁻¹ for the first, 0.000837 s⁻¹ for the second.

B1 and B2 are within 1.5-fold of each other in koff: 0.000284 s⁻¹ for the first, 0.000389 s⁻¹ for the second.

First: B3
Second: B4
The koff of the first is 3.3-fold lower: 0.000243 s⁻¹ for the first, 0.000791 s⁻¹ for the second.

B5 and B6 are within 1.5-fold of each other in kon: 129000 M⁻¹ s⁻¹ for the first, 152000 M⁻¹ s⁻¹ for the second.

Compared with B1, B2 is 2-fold lower in kon: 90000 M⁻¹ s⁻¹ for the first, 44500 M⁻¹ s⁻¹ for the second.

B3 and B4 are within 1.5-fold of each other in kon: 104000 M⁻¹ s⁻¹ for the first, 105000 M⁻¹ s⁻¹ for the second.
